The values that follow come from PMC3197643 (2011).

First the molecules themselves.
B1: V5-tagged full-length OX1R [mouse] / Myc-tagged Dynlt1 [mouse] (parent complex)
chain 1: MEPSATPGAQPGVPTSSGEPFHLPPDYEDEFLRYLWRDYLYPKQYEWVLIAAYVAVFLIALVGNTLVCLAVWRNHHMRTVTNYFIVNLSLADVLVTAICLPASLLVDITESWLFGQALCKVIPYLQAVSVSVAVLTLSFIALDRWYAICHPLLFKSTARRARGSILGIWAVSLAVMVPQAAVMECSSVLPELANRTRLFSVCDEHWADELYPKIYHSCFFIVTYLAPLGLMAMAYFQIFRKLWGRQIPGTTSALVRNWKRPSEQLEAQHQGLCTEPQPRARAFLAEVKQMRARRKTAKMLMVVLLVFALCYLPISVLNVLKRVFGMFRQASDREAVYACFTFSHWLVYANSAANPIIYNFLSGKFREQFKAAFSCCLPGLGPGSSARHKSLSLQSRCSVSKVSEHVVLTTVTTVLS
chain 2: MEDFQASEETAFVVDEVSSIVKEAIESAIGGNAYQHSKVNQWTTNVLEQTLSQLTKLGRPFKYIVTCVIMQKNGAGLHSASSCFWDSSTDGSCTVRWENKTMYCIVSTFGLSI

Variants of B1 are the subject of this assay. Kind of assay: co-IP, quantification of Western blotting bands; parent: 100; read off a plot. (In general: In western blotting, separated proteins are transferred to a membrane and probed.)
On to chain 1 T409A, chain 1 T412A, for which the percent of parent is about 28 % vs OX1R wild-type.
